Measurements from article PMC7881018, “Granulovirus PK-1 kinase activity relies on a side-to-side dimerization mode centered on the regulatory αC helix” (Nature Communications, 2021).

How the values were obtained:
[1] = biological target: T1, CpGV PK-1 (Cydia pomonella granulosis virus (isolate Mexican), UniProt Q91F41); experiment: X-ray crystal structure, […] A; assay type: binding; conditions: co-crystallised with 1 mM AMP and 10 mM MnCl2; ATP site; 18 C
T1 construct: gene orf3 pk-1; full-length (residues 1-279), E. coli expressed; assay protein codon-optimised, His6 tag cut by TEV; crystal protein amplified from genomic DNA, TEV-cleavable His6-MBP tag; homodimer 66 kDa

[2] = biological target: Cydia pomonella granulovirus protein kinase-1 (PK-1), full-length wild type (pPROEX Htb construct) (Cydia pomonella granulovirus (CpGV)); experiment: SEC
[3] = biological target: Cydia pomonella granulovirus protein kinase-1 (PK-1), full-length wild type (pPROEX Htb construct) (Cydia pomonella granulovirus (CpGV)); experiment: AUC; sedimentation velocity, 0.9 mg/mL (27 μM), 20 °C, 50,000 rpm, 20 mM HEPES pH 7.5, 200 mM NaCl; c(s) model
[4] = biological target: Cydia pomonella granulovirus protein kinase-1 (PK-1), full-length wild type (pPROEX Htb construct) (Cydia pomonella granulovirus (CpGV)); experiment: SAXS with inline SEC; 5 mg/mL (152 μM) injected on Superdex 200 5/150 Increase, 20 mM HEPES pH 7.5, 200 mM NaCl, 5% glycerol, 12 °C; scatter compared with the crystal dimer (CRYSOL), mass by SAXSMoW2
[5] = biological target: PK-1 15-279, truncated PK-1 lacking the domain-swapped N-terminal helix (Cydia pomonella granulovirus (CpGV)); experiment: SEC
[6] = biological target: PK-1 D141N, full length (Cydia pomonella granulovirus (CpGV)); experiment: SEC
[7] = biological target: PK-1 D160N, full length (Cydia pomonella granulovirus (CpGV)); experiment: SEC
[8] = biological target: PK-1 E217DNEEE>QNNQQQ, acidic αF-αG loop mutant (Cydia pomonella granulovirus (CpGV)); experiment: SEC
[9] = biological target: PK-1 K49A, full length (Cydia pomonella granulovirus (CpGV)); experiment: SEC

Nc1ncnc2c1ncn2[C@@H]1O[C@H](COP(=O)(O)O)[C@@H](O)[C@H]1O [AMP]
X-ray crystal structure, 2.01 A [1]: crystal structure of PK-1 from C. pomonella granulovirus (CpGV) in complex with AMP

Cydia pomonella granulovirus protein kinase-1 (PK-1), full-length wild type (pPROEX Htb construct) (enzyme)
stoichiometry N [2]: 2 | stoichiometry N [3]: 2 | stoichiometry N [4]: 2

PK-1 15-279, truncated PK-1 lacking the domain-swapped N-terminal helix (domain or fragment)
stoichiometry N [5]: 2

PK-1 D141N, full length (enzyme)
stoichiometry N [6]: 2

PK-1 D160N, full length (enzyme)
stoichiometry N [7]: 2

PK-1 E217DNEEE>QNNQQQ, acidic αF-αG loop mutant (enzyme)
stoichiometry N [8]: 2

PK-1 K49A, full length (enzyme)
stoichiometry N [9]: 2
